Consider two molecules from publication PMC6726503 (2019).

This test has as its target T1, TGF-β2 (Homo sapiens, UniProt P61812).
T1 chain: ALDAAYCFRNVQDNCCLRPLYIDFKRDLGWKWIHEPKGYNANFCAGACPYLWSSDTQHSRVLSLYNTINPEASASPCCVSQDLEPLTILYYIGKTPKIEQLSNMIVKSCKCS
Kind of test: SPR.

B1: betaglycan O (protein)
chain: GPEPSTRCELSPINASHPVQALMESFTVLSGCASRGTTGLPREVHVLNLRSTDQGPGQRQREVTLHLNPIASVHTHHKPIVFLLNSPQPLVWHLKTERLAAGVPRLFLVSEGSVVQFPSGNFSLTAETEERNFPQENEHLLRWAQKEYGAVTSFTELKIARNIYIKVGEDQVFPPTCNIGKNFLSLNYLAEYLQPKAAEGCVLPSQPHEKEVHIIELITPSSNPYSAFQVDIIVDIRPAQEDPEVVKNLVLILKCKKSVNWVIKSFDVKGNLKVIAPNSIGFGKESERSMTMTKLVRDDIPSTQENLMKWALDNGYRPVTSYTMAPVANRFHLRLENNEEMRDEEVHTIPPELRILLDPDHPPALDNPLFPGEGSPNGGLPFPFPD
For B1, binding was put at a Kd of 10 nM.

B2: betaglycan O-ZP (protein)
chain: GPEPSTRCELSPINASHPVQALMESFTVLSGCASRGTTGLPREVHVLNLRSTDQGPGQRQREVTLHLNPIASVHTHHKPIVFLLNSPQPLVWHLKTERLAAGVPRLFLVSEGSVVQFPSGNFSLTAETEERNFPQENEHLLRWAQKEYGAVTSFTELKIARNIYIKVGEDQVFPPTCNIGKNFLSLNYLAEYLQPKAAEGCVLPSQPHEKEVHIIELITPSSNPYSAFQVDIIVDIRPAQEDPEVVKNLVLILKCKKSVNWVIKSFDVKGNLKVIAPNSIGFGKESERSMTMTKLVRDDIPSTQENLMKWALDNGYRPVTSYTMAPVANRFHLRLENNEEMRDEEVHTIPPELRILLDPDHPPALDNPLFPGEGSPNGGLPFPFPDIPRRGWKEGEDRIPRPKQPIVPSVQLLPDHREPEEVQGGVDIALSVKCDHEKMVVAVDKDSFQTNGYSGMELTLLDPSCKAKMNGTHFVLESPLNGCGTRHRRSTPDGVVYYNSIVVQAPSPGDSSGWPDGYEDLESGDNGFPGDGDEGETAPLSRAGVVVFNCSLRQLRNPSGFQGQLDGNATFNMELYNTDLFLVPSPGVFSVAENEHVYVEVSVTKADQDLGFAIQTCFLSPYSNPDRMSDYTIIENICPKDDSVKFYSSKRVHFPIPHAEVDKKRFSFLFKSVFNTSLLFLHCELTLCSRKKGSLKLPRCVTPDDACTSLDATMIWTMMQNKKTFTKPLAVVLQVDYKENVPSTKDSSPIPPPPPQIFHGLDTL
On to B2, for which the affinity, expressed as Kd, was 0.5 nM.
